Data published in US6660837 (KIRIN BEER, dated 2003).

Columns and labels:
[1] = target: T1, LexA DNA binding domain fused to PKNN1 (amino acid sequence 1-540 of PKN), pBTM/PKNN1 (human, UniProt P0A7C2 1-202 (Escherichia coli entry)); test: yeast two-hybrid, lacZ expression in L40 cells
T1 construct: also called LexAbd-PKN; LexA-PKNN1

[2] = target: T2, Gal4 DNA-binding domain fused to PKNN1 (amino acid sequence 1-540 of PKN), pGBT9 (human, UniProt P04386 1-147 (Saccharomyces cerevisiae entry)); test: yeast two-hybrid library screen, HIS3 and β-galactosidase
T2 construct: range 1-147; also called Gal4bd-PKN

[3] = target: T3, PKNN2 (N-terminal region of PKN, amino acid sequence 1-474), 35S-labeled, in vitro translated (human, UniProt Q16512 1-474, [35S]methionine label); test: GST pull-down of 35S-labeled in vitro translated PKNN2
T3 construct: also called in vitro translated PKN-N; PKN prepared by in vitro translation

[4] = target: T4, PKN purified from rat testis cytosol (rat, UniProt Q63433 2-946, limits assumed); test: cell-based or functional assay
[5] = target: catalytic subunit of bovine heart PKA (bovine, UniProt P00517 2-351); test: cell-based or functional assay
[6] = target: T4, PKN purified from rat testis cytosol; test: apparent Ki from kinase kinetics with δPKC peptide substrate; double-reciprocal plots and secondary plot of Km/Vmax
[7] = target: RhoA^Val14CLVL^- fused to the VP16 activation domain (human, UniProt P06492 413-490; P61586 1-189); test: yeast two-hybrid with truncated PKN

T1 sequence (P0A7C2 other isoform, or with tags, fused parts or gaps limits assumed): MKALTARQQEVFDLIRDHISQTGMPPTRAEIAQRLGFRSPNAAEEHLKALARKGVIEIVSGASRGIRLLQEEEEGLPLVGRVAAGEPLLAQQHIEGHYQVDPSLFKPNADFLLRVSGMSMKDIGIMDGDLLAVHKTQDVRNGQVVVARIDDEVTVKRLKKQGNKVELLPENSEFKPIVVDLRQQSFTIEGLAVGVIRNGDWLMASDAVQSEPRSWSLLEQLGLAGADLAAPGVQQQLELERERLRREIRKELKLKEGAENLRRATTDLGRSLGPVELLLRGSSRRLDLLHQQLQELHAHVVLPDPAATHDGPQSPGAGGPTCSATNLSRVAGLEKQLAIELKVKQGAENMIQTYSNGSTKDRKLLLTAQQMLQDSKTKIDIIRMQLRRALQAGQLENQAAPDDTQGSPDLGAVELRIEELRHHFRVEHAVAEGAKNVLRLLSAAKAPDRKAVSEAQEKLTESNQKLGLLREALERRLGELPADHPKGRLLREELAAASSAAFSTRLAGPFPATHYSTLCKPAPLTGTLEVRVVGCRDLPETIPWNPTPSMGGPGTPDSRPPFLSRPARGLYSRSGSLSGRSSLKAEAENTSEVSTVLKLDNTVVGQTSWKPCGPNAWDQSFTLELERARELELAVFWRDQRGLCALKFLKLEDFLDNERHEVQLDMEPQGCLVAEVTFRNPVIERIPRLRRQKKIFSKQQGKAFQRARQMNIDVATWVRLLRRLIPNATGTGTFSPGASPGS
T3 sequence (Q16512 1-474): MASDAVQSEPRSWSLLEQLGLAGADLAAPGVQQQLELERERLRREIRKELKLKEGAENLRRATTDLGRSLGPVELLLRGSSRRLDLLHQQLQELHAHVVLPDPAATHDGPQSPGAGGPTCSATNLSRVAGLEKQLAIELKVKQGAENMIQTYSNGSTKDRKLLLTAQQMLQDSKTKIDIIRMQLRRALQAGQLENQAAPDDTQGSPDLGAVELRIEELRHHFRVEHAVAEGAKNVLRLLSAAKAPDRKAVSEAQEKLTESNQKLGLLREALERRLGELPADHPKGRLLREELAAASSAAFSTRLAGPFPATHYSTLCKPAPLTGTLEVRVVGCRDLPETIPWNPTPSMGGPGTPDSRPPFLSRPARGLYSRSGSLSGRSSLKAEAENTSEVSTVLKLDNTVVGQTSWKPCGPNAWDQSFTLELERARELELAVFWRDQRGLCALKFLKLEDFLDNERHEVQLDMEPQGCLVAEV

B1: VP16 transcription activation domain fused to the head-rod domain of human NFL (amino acid sequence 1-349), pVP/NFL#21 (other)
chain: MSSFSYEPYYSTSYKRRYVETPRVHISSVRSGYSTARSAYSSYSAPVSSSLSVRRSYSSSSGSLMPSLENLDLSQVAAISNDLKSIRTQEKAQLQDLNDRFASFIERVHELEQQNKVLEAELLVLRQKHSEPSRFRALYEQEIRDLRLAAEDATNEKQALQGEREGLEETLRNLQARYEEEVLSREDAEGRLMEARKGADEAALARAELEKRIDSLMDEISFLKKVHEEEIAELQAQIQYAQISVEMDVTKPDLSAALKDIRAQYEKLAAKNMQNAEEWFKSRFTVLTESAAKNTDAVRAAKDEVSESRRLLKAKTLEIEACRGMNEALEKQLQELEDKQNADISAMQD
notes: range 1-349
[1]
  binding result: binds

B2: Gal4 activation domain fusion of library clone #21 (head-rod domain of human NFL, amino acid sequence 1-349), pGAD10-NFL#21 (other, UniProt P07196 1-349, looked up, not shown: large carriers)
chain: B1 chain
notes: range 1-349; also called clone#21 protein; plasmid #21
[2]
  binding result: binds

B3: GST-HuActSkl (604-719) (other, human, UniProt P35609 604-719, looked up)
chain: MDELRTKWDKVKQLVPIRDQSLQEELARQHANERLRRQFAAQANAIGPWIQNKMEEIARSSIQITGALEDQMNQLKQYEHNIINYKNNIDKLEGDHQLIQEALVFDNKHTNYTMEH
notes: not shown: glutathione S-transferase (GST) tag
[3]
  binding result: no binding

B4: VP16 transcription activation domain fused to the head-rod domain of NFM, pVP/NFMhr (other)
chain: MSYTLDSLGNPSAYRRVTETRSSFSRVSGSPSSGFRSQSWSRGSPSTVSSSYKRSMLAPRLAYSSAMLSSAESSLDFSQSSSLLNGGSGPGGDYKLSRSNEKEQLQGLNDRFAGYIEKVHYLEQQNKEIEAEIQALRQKQASHAQLGDAYDQEIRELRATLEMVNHEKAQVQLDSDHLEEDIHRLKERFEEEARLRDDTEAAIRALRKDIEEASLVKVELDKKVQSLQDEVAFLRSNHEEEVADLLAQIQASHITVERKDYLKTDISTALKEIRSQLESHSDQNMHQAEEWFKCRYAKLTEAAEQNKEAIRSAKEEIAEYRRQLQSKSIELESVRGTKESLERQLSDIEERHNHDLSSYQDTIQQLENELRGTKWEMARHLREYQDLLNVKMALDIEIAAYRKLLEGEETR
notes: range 1-411
[1]
  binding result: binds

B5: GST-HuActSkl (837-894) (other, human, UniProt P35609 837-894, looked up)
chain: ILASDKPYILAEELRRELPPDQAQYCIKRMPAYSGPGSVPGALDYAAFSSALYGESDL
notes: as for B3
[3]
  binding result: no binding

B6: PKN (39-53) peptide (peptide)
peptide: RERLRREIRKELKLK
[4]
  IC50 (inhibition of δPKC peptide phosphorylation by PKN): ~80 µM
[5]
  IC50 (inhibition of Kemptide phosphorylation by PKA): ≥ 1000 µM
[6]
  Ki: 41 µM

B7: truncated PKN, amino acid sequence 3-135, two-hybrid fusion (other)
chain: SDAVQSEPRSWSLLEQLGLAGADLAAPGVQQQLELERERLRREIRKELKLKEGAENLRRATTDLGRSLGPVELLLRGSSRRLDLLHQQLQELHAHVVLPDPAATHDGPQSPGAGGPTCSATNLSRVAGLEKQL
notes: also called PKN 3-135
[7]
  binding result: binds
